Holding throughout (test): ITC; 250 μM PabB titrated into 25 μM PabA in the cell; 25 °C; 50 mM Tris/HCl pH 7.5, 50 mM KCl, 5 mM MgCl2; without Cho and Gln; one set of sites
Holding throughout (conditions): both partners purified

One test deals with T1, PabB variant bE119D (Escherichia coli, UniProt P05041 1-453, bE119D).
T1 construct: PabB, synthase subunit of ADCS, E. coli; construct as m2 with one exchange; Made by QuikChange mutagenesis from the construct of m2; source: E. coli BL21-Gold (DE3), purified (Ni-IMAC, preparative gel filtration)
T1 sequence: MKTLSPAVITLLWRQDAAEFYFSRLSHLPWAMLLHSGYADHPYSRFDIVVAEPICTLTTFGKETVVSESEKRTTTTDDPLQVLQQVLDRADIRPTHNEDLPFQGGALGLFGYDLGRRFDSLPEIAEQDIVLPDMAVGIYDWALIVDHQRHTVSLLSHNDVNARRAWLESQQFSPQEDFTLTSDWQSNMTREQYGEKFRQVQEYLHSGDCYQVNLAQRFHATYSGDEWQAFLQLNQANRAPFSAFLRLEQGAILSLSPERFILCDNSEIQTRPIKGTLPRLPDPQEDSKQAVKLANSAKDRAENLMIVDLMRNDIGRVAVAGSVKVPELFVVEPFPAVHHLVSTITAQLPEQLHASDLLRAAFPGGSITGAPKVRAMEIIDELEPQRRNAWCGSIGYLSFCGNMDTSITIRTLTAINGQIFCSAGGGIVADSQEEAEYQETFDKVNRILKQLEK

The next test deals with T2, PabB variant bD308E (Escherichia coli, UniProt P05041 1-453, bD308E).
T2 construct: PabB, synthase subunit of ADCS, E. coli; construct as m2 with one exchange; Made by QuikChange mutagenesis from the construct of m2; source: E. coli BL21-Gold (DE3), purified (Ni-IMAC, preparative gel filtration)
T2 sequence: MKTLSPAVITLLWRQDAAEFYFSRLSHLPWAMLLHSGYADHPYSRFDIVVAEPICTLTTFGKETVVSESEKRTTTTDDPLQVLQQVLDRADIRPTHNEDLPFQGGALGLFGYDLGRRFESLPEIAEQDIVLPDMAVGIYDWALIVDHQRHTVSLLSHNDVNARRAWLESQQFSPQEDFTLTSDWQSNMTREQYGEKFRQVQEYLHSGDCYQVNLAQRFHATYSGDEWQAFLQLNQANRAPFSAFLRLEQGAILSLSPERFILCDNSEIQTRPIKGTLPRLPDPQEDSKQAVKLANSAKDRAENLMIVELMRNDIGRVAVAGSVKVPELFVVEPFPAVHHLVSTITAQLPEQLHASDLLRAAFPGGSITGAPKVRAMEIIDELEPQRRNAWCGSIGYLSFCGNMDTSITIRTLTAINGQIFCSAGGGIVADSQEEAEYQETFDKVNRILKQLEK

For the next test, the target named is T3, PabB variant bE119R (Escherichia coli, UniProt P05041 1-453, bE119R).
T3 construct: PabB, synthase subunit of ADCS, E. coli; construct as m2 with one exchange; Made by QuikChange mutagenesis from the construct of m2; source: E. coli BL21-Gold (DE3), purified (Ni-IMAC, preparative gel filtration)
T3 sequence: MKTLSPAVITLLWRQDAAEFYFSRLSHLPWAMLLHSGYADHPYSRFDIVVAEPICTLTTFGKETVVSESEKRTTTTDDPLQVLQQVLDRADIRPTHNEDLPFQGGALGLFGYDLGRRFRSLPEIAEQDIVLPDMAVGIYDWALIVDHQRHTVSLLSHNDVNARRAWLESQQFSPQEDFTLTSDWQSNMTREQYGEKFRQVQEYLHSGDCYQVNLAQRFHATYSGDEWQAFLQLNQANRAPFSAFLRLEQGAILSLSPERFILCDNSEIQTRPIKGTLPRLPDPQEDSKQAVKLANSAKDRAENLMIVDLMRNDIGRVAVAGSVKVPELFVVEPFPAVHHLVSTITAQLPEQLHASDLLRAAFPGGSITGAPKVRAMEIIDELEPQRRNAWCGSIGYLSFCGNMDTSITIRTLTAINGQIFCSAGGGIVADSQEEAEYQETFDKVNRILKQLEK

A further test deals with T4, PabB variant bG207P (Escherichia coli, UniProt P05041 1-453, bG207P).
T4 construct: PabB, synthase subunit of ADCS, E. coli; construct as m2 with one exchange; Made by QuikChange mutagenesis from the construct of m2; source: E. coli BL21-Gold (DE3), purified (Ni-IMAC, preparative gel filtration)
T4 sequence: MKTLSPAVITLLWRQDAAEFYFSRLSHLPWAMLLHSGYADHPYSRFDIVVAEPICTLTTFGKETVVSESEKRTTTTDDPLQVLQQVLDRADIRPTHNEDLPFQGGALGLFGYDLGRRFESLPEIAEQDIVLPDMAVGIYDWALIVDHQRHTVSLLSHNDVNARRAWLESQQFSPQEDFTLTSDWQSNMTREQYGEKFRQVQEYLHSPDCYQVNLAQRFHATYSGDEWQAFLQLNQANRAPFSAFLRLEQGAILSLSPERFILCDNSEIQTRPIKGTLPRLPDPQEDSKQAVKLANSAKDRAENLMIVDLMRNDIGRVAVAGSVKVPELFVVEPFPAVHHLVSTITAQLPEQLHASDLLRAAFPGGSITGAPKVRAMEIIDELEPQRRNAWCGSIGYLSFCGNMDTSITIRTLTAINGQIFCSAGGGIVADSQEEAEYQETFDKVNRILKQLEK

A further test addresses T5, PabB variant bY210A (Escherichia coli, UniProt P05041 1-453, bY210A).
T5 construct: PabB, synthase subunit of ADCS, E. coli; construct as m2 with one exchange; Made by QuikChange mutagenesis from the construct of m2; source: E. coli BL21-Gold (DE3), purified (Ni-IMAC, preparative gel filtration)
T5 sequence: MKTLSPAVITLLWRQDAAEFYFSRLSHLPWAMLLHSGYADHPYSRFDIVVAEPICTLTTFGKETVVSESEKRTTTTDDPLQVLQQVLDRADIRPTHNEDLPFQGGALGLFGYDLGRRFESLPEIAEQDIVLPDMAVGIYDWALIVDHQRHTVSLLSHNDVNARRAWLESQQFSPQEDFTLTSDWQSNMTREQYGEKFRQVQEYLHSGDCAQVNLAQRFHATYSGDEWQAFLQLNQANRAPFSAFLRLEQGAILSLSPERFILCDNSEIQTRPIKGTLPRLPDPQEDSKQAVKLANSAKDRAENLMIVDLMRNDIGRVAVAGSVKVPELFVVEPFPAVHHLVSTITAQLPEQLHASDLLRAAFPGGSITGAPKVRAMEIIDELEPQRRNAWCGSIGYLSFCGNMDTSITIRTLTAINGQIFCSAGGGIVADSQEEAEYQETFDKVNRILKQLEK

The Kd is the free concentration of one partner at which half of the binding sites on the other are occupied at equilibrium, for simple one-to-one binding. Low values mean tighter binding, high ones weaker binding.

B1: PabA, glutaminase subunit of aminodeoxychorismate synthase (ADCS) from Escherichia coli, wild type (enzyme)
chain: MILLIDNYDSFTWNLYQYFCELGADVLVKRNDALTLADIDALKPQKIVISPGPCTPDEAGISLDVIRHYAGRLPILGVCLGHQAMAQAFGGKVVRAAKVMHGKTSPITHNGEGVFRGLANPLTVTRYHSLVVEPDSLPACFDVTAWSETREIMGIRHRQWDLEGVQFHPESILSEQGHQLLANFLHR
notes: PabA, class I glutaminase subunit of ADCS, E. coli; the gene was cloned into pET28a; Form used for SEC, ITC and kinetics; TEV cleavage is told only of the proteins used for crystallization; The G5H-Tag stands between the TEV site and the start methionine of PabA; also called wt PabA; ADCS glutaminase subunit; source: E. coli BL21-Gold (DE3), purified (Ni-IMAC, preparative gel filtration)
Regarding B1, the Kd in the test with PabB variant bE119D was determined as 840 nM; with PabB variant bD308E it was 1700 nM; in the test with PabB variant bE119R, 540 nM; with PabB variant bG207P it was 1700 nM; with PabB variant bY210A it was 5500 nM.

Source of the values: publication PMC7617670, “Activity Regulation of a Glutamine Amidotransferase Bienzyme Complex by Substrate-Induced Subunit Interface Expansion” (ACS catalysis, 2025).
